The values below come from US12180473B2, “Chimeric RNA-driven genomic rearrangement in mammalian cells” (priority 2018, dated 2024).

The subject of series [1] is TMPRSS2-ETV1 fusion. The experiment in a line: RT-PCR detection of induced TMPRSS2-ETV1 fusion transcript in LNCaP cells. It is filed as cell-based, human. The conditions noted are these: for TMPRSS2-ETV1 fusion, specificity of input RNA: three-round nested PCR (FIG. 4C). As to the method:
• 1st Round: Top down PCR with TMPRSS2 ex-1 F1 and ETV1 ex-6 R1 • Denaturation 94° C., 30 sec • Annealing * , 45 sec • Extension 72° C., 60 sec
The Denaturation, Annealing and Extension steps were performed 2 cycles. • 2 cycles at each temperature: 62° C., 61° C., 60° C. . . .
Long Range PCR for Detecting Genomic DNA Fusion Junction

In series [2] the test system is TMPRSS2-ERG genomic breakpoint. The class given is cell-based, human. As to the method: (§1) Nested long-range PCRs according to the manufacturer's protocols using LA PCR kit (Takara, #RR002M). 200 ng of genomic DNA was used in each reaction and PCR was performed with annealing and extension at 68° C. for 20 minutes. 1 μl from the above reaction (1st round PCR) was used as template for the 2nd round PCR.
For the genomic breakpoint identified in this manuscript, 1st round long range PCR was done using primers TMPRSS2 genomic bk-F1 and ERG genomic bk-R1 shown in primer list below. 1 μl from the above reaction (1st round PCR) was used as template for the 2nd round PCR using inner primers TMPRSS2 genomic bk-F2 and ERG genomic bk-R2.

The subject of series [3] is TMPRSS2-ERG fusion. The experiment in a line: RT-PCR detection of induced endogenous TMPRSS2-ERG fusion transcript in LNCaP cells expressing input RNA. The conditions noted are these: for induction of endogenous TMPRSS2-ERG fusion transcript (RT-PCR): LNCaP cells transfected with input RNA plasmid, DHT for 3 days; for TMPRSS2-ERG fusion, specificity of input RNA: three-round nested PCR (FIG. 4C).

Series [4] relates to ERG mRNA.
In series [5] the test system is TMPRSS2-ERG fusion.
The nature of series [6]: RT-PCR detection of input RNA in propagated/enriched LNCaP population. Particulars: enriched LNCaP population. The class given is cell-based, human. The protocol:
FIG. 18. Procedure used to propagate and enrich the induced LNCaP population for 52 days in the absence of DHT. LNCaP cells were transfected on day 1 with antisense-5 and incubated for 3 days with DHT. Cells were then divided into sub-populations. Half of the cells from each sub-population were harvested for RT-PCR assays to detect the induced fusion transcript whereas the other half was used to propagate the population. […] The process was continued for 52 days.

The subject of series [7] is BCR-KCNQ2 fusion. The experiment in a line: Nested RT-PCR of induced BCR-KCNQ2 fusion transcript in HL-60 cells. The class given is cell-based, human. The text has this: FIGS. 41A-41D. RNA-mediated inter-chromosomal BCR-KCNQ2 fusion in HL-60 cells by designed chimeric RNA. FIG. 41A. The design of chimeric RNA is based on the three-way junction that could be formed between genomic DNA (in the stem) and chimeric RNA (perpendicular and below the stem). The three-way junction consists of an RNA/DNA hybrid and a genomic DNA stem (black) between the parental genes (BCR and KCNQ2). The sense genomic strand of BCR gene is on the positive strand of chromosome 22 while that of KCNQ2 is on the negative strand of chromosome 20. Short lines in gray regions represent base pairings. FIG. 41B. […] This chimeric RNA target intron regions and has GC content of 55.4%. The fusion RNA transcribed from the induced fusion gene contains an annotated splice junction. In this case, two different fusion RNAs were confirmed based on the results derived from the Sanger sequencing data. FIG. 41B discloses the BCR targeting sequence as SEQ ID NO: 242, the KCNQ2 targeting sequence as SEQ ID NO: 243, and the chimeric sequence as SEQ ID NO: 244. FIG. 41C. Two BCR-KCNQ2 fusion transcript variants were induced in HL-60 cells by chimeric RNA targeting BCR and KCNQ2 genes in the genome without hormone or other stimuli. FIG. 41D. Schematic of induced BCR-KCNQ2 fusion transcripts derived from the Sanger sequencing data. […]

Series [8] concerns JAZF1-SUZ12 fusion. The experiment in a line: Nested RT-PCR of induced JAZF1-SUZ12 fusion transcript in 293T cells. It is filed as cell-based, human. The text has this: FIGS. 39A-39D. RNA-mediated inter-chromosomal JAZF1-SUZ12 fusion in 293T cells. FIG. 39A. The design of chimeric RNA is based on the three-way junction that could be formed between genomic DNA (in the stem) and chimeric RNA (perpendicular and below the stem). The three-way junction comprises an RNA/DNA hybrid and a genomic DNA stem between the parental genes (JAZF1 and SUZ12). The sense genomic strand of JAZF1 gene is on the negative strand of chromosome 7 while that of SUZ12 is on the positive strand of chromosome 17. Short vertical lines in gray regions between the chromosome and the chimeric RNA represent base pairings. FIG. 39B. […] This chimeric RNA target intron regions and has GC content of 27%. The fusion RNA transcribed from the induced fusion gene contains an annotated splice junction. In this particular case, two different fusion RNAs were confirmed based on the results derived from the Sanger sequencing data. FIG. 39B discloses the JAZF1 targeting sequence as SEQ ID NO: 236, the SUZ12 targeting sequence as SEQ ID NO: 237, and the chimeric sequence as SEQ ID NO: 238. FIG. 39C. Example of inter-chromosomal JAZF1-SUZ12 fusion transcript (arrow) induced by sequence-specific chimeric RNAs in 293T cells without additional hormone or other stimuli. 293T cells were transfected with chimeric RNA expression plasmid. Total RNA was then harvested at day 3. […]

For series [9], the system named is BCR-RANGAP1 fusion. Put plainly: Nested RT-PCR of induced BCR-RANGAP1 fusion transcript in 293T cells. It is filed as cell-based, human. The text has this:
FIGS. 40A-40C. RNA-mediated intra-chromosomal BCR-RANGAP1 fusion in 293T cells by designed chimeric RNA. FIG. 40A. The design of chimeric RNA is based on the three-way junction that could be formed between genomic DNA (in the stem) and chimeric RNA (perpendicular and below the stem). The three-way junction consists of an RNA/DNA hybrid and a genomic DNA stem between the parental genes (BCR and RANGAP1). The sense genomic strand of BCR gene is on the positive strand of chromosome 22 while that of RANGAP1 is on the negative strand of chromosome 22, separated by 18 Mb. Short lines in gray regions represent base pairings. FIG. 40B. […] This chimeric RNA target intron regions and has GC content of 48.4%. The fusion RNA transcribed from the induced fusion gene contains an annotated splice junction. FIG. 40B discloses the BCR targeting sequence as SEQ ID NO: 239, the RANGAP1 targeting sequence as SEQ ID NO: 240, and the chimeric sequence as SEQ ID NO: 241. FIG. 40C. Intra-chromosomal BCR-RANGAP1 fusion transcript (arrow) induced by sequence-specific chimeric RNA in 293T cells without additional hormone or other stimuli. 293T cells were transfected with chimeric RNA expression plasmid. Total RNA was then harvested at day 3. Nested RT-PCR using specific primer pairs were used to detect the induced fusion transcript. […]

Series [10] concerns TMPRSS2-ETV1 genomic breakpoints. The experiment in a line: Genomic PCR of TMPRSS2-ETV1 genomic breakpoints in enriched LNCaP population. It is filed as cell-based, human. Particulars: enriched vs untransfected LNCaP cells. The protocol: as §1
The subject of series [11] is TMPRSS2-ETV1 fusion gene. Put plainly: FISH with 3D image reconstruction, co-localization of TMPRSS2 and ETV1 in enriched LNCaP population. It is filed as cell-based, human. Particulars: 30 out of 3301 cells. As to the method:
Enriched population carrying TMPRRS2-ETV1 fusion events were first grown on 18 mm round #1 coverglass in a 12-well cell culture plate at the initial density of 200-400 k/well. Cells were then fixed with 4% (vol./vol.) formaldehyde followed by denaturation of DNA with 0.1 N HCl for 5 min and with 70% formamide at 85° C. for 7 min. Hybridization of target DNA with probes were done at 37° C. for 16 hr in a humidified chamber. Cells were then washed, stained with DAPI and imaged with microscope. FISH probes for TMPRSS2 (RP11-35C4, red) and ETV1 (RP11-769K2, green) were purchased from Empire Genomics.

Setting [12] is: 293T, day 3, without hormone or other stimuli.

Entries after “also recorded” stand apart in the source; their conditions may differ. Read-outs that look alike come from different tables or passages of the source.

B1: Antisense-5: input RNA, SEQ ID NO: 8 (nucleic acid)
antisense: TGTGCTCGCTTCGGCAGCACATATACTAACATTGGAACGATCCTGCAGCTTGAGCCATTCACCTGGCTAGGGTTACATTCCATATTGATGGTGACCCTGGCTGGGGGTTGAGACAGCCAATCCGCCGCTCACCTGCCGCGCTCCAGGCGGCGCTCCCCGCCCCTCGCCCTCCGCCAGACAGGAGTGAGAGATGGAAGCTCGCGCCTACTC
As for B1, the “TMPRSS2-ETV1 fusion, specificity of input RNA” value in [1] (LNCaP) is “not TMPRSS2-ETV1 fusion”. For the same molecule, the “genomic TMPRSS2-ERG fusion band (~862 bp, primer pair A/D)” value in series [2] was “present only in the enriched LNCaP population”. Moreover, the “induction of endogenous TMPRSS2-ERG fusion transcript (RT-PCR)” value is on record as “clear induction” in series [3] and “peaked; also recorded: sufficient to induce TMPRSS2-ERG gene fusion” in series [3] (listed as antisense-5). Further, the “lowest DHT concentration at which fusion induction occurred” value in series [3] (LNCaP, 3 days, three-rounds of nested PCR) was 20 nM. Besides, in series [3] (LNCaP), the “TMPRSS2-ERG fusion, specificity of input RNA” value is “induced TMPRSS2-ERG fusion”. In addition, the “persistence of induced TMPRSS2-ERG fusion transcript” value in series [3] (enriched LNCaP population propagated in absence of DHT and input RNA) was ≥ 52 days. Further, the “Cell line(s) identified” value in [3] (fusion gene partners TMPRSS2-ERG, LNCaP) is given as “LNCaP,”; in [5], “PNT1A”. Besides, the “induction of TMPRSS2-ERG fusion after transfection of digested plasmid fragments” value in [3] (plasmid cut SacII/KpnI or SacII/PstI) is listed as “induced only when the U6 promoter was attached to antisense-5 sequence”. The “endogenous ERG mRNA (RT-PCR)” value in series [4] is reported as “not detected”. Further, the “endogenous ERG mRNA (three-rounds of nested RT-PCR)” value in [4] is listed as “not detected”. In addition, the “time after transfection until which transiently expressed input RNA is present (RT-PCR)” value in series [6] was ≤ 17 days.

B2: S4 30-2: chimeric RNA, BCR-KCNQ2, GC content 55.4% (nucleic acid)
chain: GAGATCGAGACCATCCTGGCTAACGCAGTGAAACCCCGTCTCTACATTACCAGCCTTCACTGTTCTGACAGCTCCAGTAGCTGGGGGAGACC
modifications: listed as DNA, further chemistry not given here
For the molecule B2, the “induction of BCR-KCNQ2 fusion” value in series [7] (HL-60, nucleofection, day 7) is “induce BCR-KCNQ2 fusion”. Moreover, the “Cell line(s) identified” value in series [7] (fusion gene partners BCR-KCNQ2, HL-60) was “HL-60”.

B3: JS-8: chimeric RNA, JAZF1-SUZ12, GC content 27% (nucleic acid)
chain: TCAACAAAAGAACTATTGATTGATGCCAAACAAGATGAAAATTTCACTTTGCGTATTAGTTACCAAAGGTTTATTTATGTTTCTGTAATGCATATTTATA
modifications: chimeric RNA, chemistry not given here
In the case of B3, in [8] (setting [12]), the “induction of JAZF1-SUZ12 fusion” value is “induce JAZF1-SUZ12 fusion”. For the same molecule, the “Cell line(s) identified” value in series [8] (fusion gene partners JAZF1-SUZ12) is on record as 293T.

B4: S1-7: chimeric RNA, BCR-RANGAP1, GC content 48.4% (nucleic acid)
chain: AGAATATGTGTAATTGTGTTACCAGCCTTCACTGTTCTGACAGCTCCAGTAGCTGGGGGAGACC
modifications: chimeric RNA, chemistry not given here
As for B4, the “induction of BCR-RANGAP1 fusion” value in series [9] (setting [12]) is “induce BCR-RANGAP1 fusion”. For the same molecule, the “Cell line(s) identified” value in [9] (fusion gene partners BCR-RANGAP1) stood at 293T.

B5: Antisense-TMPRSS2-ETV1-A1: input RNA, SEQ ID NO: 34; antisense RNA designed to target stem TMPRSS2-ETV1-A (nucleic acid)
antisense: TGTGCTCGCTTCGGCAGCACATATACTAACATTGGAACGATCCTGCAGTGCCGCATTATGTAAATCGTTCCAAGTTAAAGTCTTAGTTAGATTCAGTAGACTAGGAGCCAGCTTTGGGGACCCCGGGGGACTCTCTTCCACCAACTGG
Regarding B5, the “genomic TMPRSS2-ETV1 fusion bands x, y, z” value in [10] was “present only in the induced and enriched LNCaP population”. Further, the “TMPRSS2-ETV1 fusion, specificity of input RNA” value in series [1] (LNCaP) was “induced TMPRSS2-ETV1 fusion”. Besides, the “induction of TMPRSS2-ETV1 fusion transcript (RT-PCR)” value in series [1] (LNCaP, two-round nested PCR) is on record as “clear induction of the TMPRSS2-ETV1 fusion transcript; also recorded: led to induced fusion transcript”. The “persistence of induced TMPRSS2-ETV1 fusion transcript” value in series [1] (enriched LNCaP population post initial treatment) was ≥ 47 days. Also, the “Cell line(s) identified” value in [1] (fusion gene partners TMPRSS2-ETV1) is “LNCaP”. Moreover, in [11], the “cells positive for TMPRSS2-ETV1 fusion gene by co-localized FISH signals” value is “Approximately 0.9%”. Also, the “TMPRSS2-ERG fusion, specificity of input RNA” value in series [3] (LNCaP) is reported as “not TMPRSS2-ERG fusion”. Besides, the “time after transfection until which transiently expressed input RNA is present (RT-PCR)” value in series [6] is < 47 days.
